Earlier results on one substance are cited in article PMC11591972.

This data set has as its target Vm24 (Vaejovis mexicanus smithi) (UniProt P0DJ31).
Chain of UniProt P0DJ31 (P0DJ31 whole entry): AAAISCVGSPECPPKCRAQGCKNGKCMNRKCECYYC

Kv1.3 (from UniProt P22001): the Kd is 3 pM.
